Target: the molecule itself
Experiment: SDS-PAGE and Western blot

B1: HA-tagged rat syndecan-4 AAA mutant (serines 44, 65 and 67 mutated to alanine; no glycosaminoglycan chains) (receptor, UniProt P34901 24-202, looked up)
chain: ESIRETEVIDPQDLLEGRYFAGALPDDEDAGGLEQDSDFELAGAGDLDDTEEPRTFPEVISPLVPLDNHIPENAQPGIRVPSEPKELEENEVIPKRVPSDVGDDDVSNKVSMSSTSQGSNIFERTEVLAALIVGGVVGILFAVFLILLLVYRMKKKDEGSYDLGKKPIYKKAPTNEFYA
stoichiometry N: 2
